Assay results: paper PMC9335211

Assays:
[1] = target: full-length ectodomains (EC1 to EC5) of mouse E-cadherin, wild type (mouse); test: high-speed atomic force microscopy
[2] = target: mouse E-cadherin full-length ectodomains, W2A mutant (mouse); test: high-speed atomic force microscopy

stoichiometry N [1]	share of the observed dimers that are S-shaped [2] [%]	share of the observed dimers that are cross-shaped (X-like dimer) [2] [%]	Substance
2	–	–	full-length ectodomains (EC1 to EC5) of mouse E-cadherin, wild type (domain or fragment)
–	45	20	mouse E-cadherin full-length ectodomains, W2A mutant (domain or fragment)
